Experiment [1] addresses T1, recombinant Frizzled receptor 7 (FZD7) cysteine-rich domain (CRD) fused to the Fc region of human IgG (human, UniProt O75084 33-185). In words: ELISA, 1ug/ml (20nM) Fab. The procedure:
(§1) FIG. 2B is a table depicting the binding of purified Fabs to purified FZD7-Fc measured by ELISA. Fabs purified from 25 ml bacterial cultures were assayed for binding to FZD7-Fc fusion protein (R&D systems) and Fc protein. ELISA plates (384 well) were coated with 2 ug/ml of protein in PBS overnight at four degrees. Wells were blocked with 0.5% BSA/PBS for 1 hour at room temperature, washed three times with 0.05% Tween20/PBS (wash buffer), and then primary dilutions of Fabs in 0.5% BSA/0.05% Tween20/PBS (dilution buffer) were added at indicated concentrations. Fabs were incubated for 1 hour at room temperature, wells were washed six times, and anti-FLAG-HRP (Sigma) was added at 1:5000 in dilution buffer. Secondary antibody was incubated for 45 minutes at room temperature, and wells were washed six times and developed with TMB substrate with an acid stop. The absorbance at 450 nm was read. n.t.=not tested.
Background: An ELISA detects its analyte on a solid surface through an enzyme-linked reagent.

The target in experiment [2] is T2, Fc control protein.
T2 construct: also called Fc protein; control Fc protein
As to the kind of experiment: ELISA, 1ug/ml (20nM) Fab. The procedure: as §1

In experiment [3] the target is T1, recombinant Frizzled receptor 7 (FZD7) …. As to the kind of experiment: ELISA, 10ug/ml (200nM) Fab. The procedure:
as §1

The target in experiment [4] is T2, Fc control protein. In words: ELISA, 10ug/ml (200nM) Fab. Here is the method: as §1
Experiment [5] deals with T3, FZD7 receptor expressed on cells (full-length) (UniProt O75084 33-574, limits assumed).
T3 construct: whole, on cells; MDA MB 231 cells may carry other Frizzled receptors too; also called full-length FZD7 receptor; endogenous receptor on MDA MB 231 cells
In words: flow cytometry, 200 nM Fab, MDA MB 231. The procedure:
(§2) FIG. 3 is a table depicting the binding of the purified Fabs to cells expressing FZD7 (flow cytometry). Small scale Fabs were assayed for binding to full-length FZD7 receptor to an over-expression line in MDA MB 231 cells. In parallel, Fabs were assayed for binding to endogenous receptor expressed on the MDA MB 231 cells. Cells were harvested using an EDTA solution, blocked in 2% FBS/PBS (stain buffer), and stained with 200 nM Fab for 30 min on ice. Cells were washed two times with stain buffer and incubated with anti-F(ab′)₂-APC secondary antibody (Jackson Immuno) at 1:1000 for 15 minutes on ice. All antibodies were diluted in stain buffer. Cells were washed three times with stain buffer and then fixed with 1% paraformaldehye for analysis by flow cytometry. […] The percent of the cell population within the positive gates is indicated.
A general note: A flow cytometer gives signals particle by particle.

In experiment [6] the target is T3, FZD7 receptor expressed on cells …. In words: flow cytometry, 200 nM Fab, FZD7 over-expression line (MDA MB 231). The procedure:
as §2

In experiment [7] the target is T2, Fc control protein. In words: ELISA, 1ug/ml (20nM) Fab [cont'd]. Here is the method: as §1
Experiment [8] addresses T2, Fc control protein. In words: ELISA, 10ug/ml (200nM) Fab [cont'd]. Here is the method: as §1
The target in experiment [9] is T3, FZD7 receptor expressed on cells …. As to the kind of experiment: flow cytometry, 200 nM Fab, MDA MB 231 [cont'd]. Here is the method: as §2
Experiment [10] has the same target. In words: flow cytometry, 200 nM Fab, FZD7 over-expression line (MDA MB 231) [cont'd]. The procedure: as §2

From patent publication US20160194394A1 (GOVERNING COUNCIL OF THE UNIVERSITY OF TORONTO, published 2016) come the findings set out here.

B1: C11 (Fab)
light: DIQMTQSPSSLSASVGDRVTITCRASQSVSSAVAWYQQKPGKAPKLLIYSASSLYSGVPSRFSGSRSGTDFTLTISSLQPEDFATYYCQQGHYYPYYLFTFGQGTKVEIKRTVAAPSVFIFPPSDSQLKSGTASVVCLLNNFYPREAKVQWKVDNALQSGNSQESVTEQDSKDSTYSLSSTLTLSKADYEKHKVYACEVTHQGLSSPVTKSFNRGECGGS
heavy: EVQLVESGGGLVQPGGSLRLSCAASGFNIYYSYMHWVRQAPGKGLEWVASIYSYSGYTYYADSVKGRFTISADTSKNTAYLQMNSLRAEDTAVYYCARSVWGYPYGMDYWGQGTLVTVSSASTKGPSVFPLAPSSKSTSGGTAALGCLVKDYFPEPVTVSWNSGALTSGVHTFPAVLQSSGLYSLSSVVTVPSSSLGTQTYICNVNHKPSNTKVDKKVEPKSC
notes: selection round 2; also called Fzd7-R2-C11
Take B1: the “OD 450” value was 0.24 in experiment [1], 0.07 in experiment [2], 1.09 in experiment [3] and 0.06 in experiment [4]. Also, the “% population within the positive gate” value came to 1% in [5] and 42% in experiment [6].

B2: A10 (Fab, V domains shown)
VH: EVQLVESGGGLVQPGGSLRLSCAASGFNFSSSSIHWVRQAPGKGLEWVAYIYPYYGYTYYADSVKGRFTISADTSKNTAYLQMNSLRAEDTAVYYCARWVVAGHYGMDYWGQGTLVTVSS
VL: DIQMTQSPSSLSASVGDRVTITCRASQSVSSAVAWYQQKPGKAPKLLIYSASSLYSGVPSRFSGSRSGTDFTLTISSLQPEDFATYYCQQSYWPGWPITFGQGTKVEIKR
notes: selection round 3; also called Fzd7-R3-A10
For B2, the “OD 450” value in [7] and in [8] was 0.05 each time.

B3: B8 (Fab)
light: DIQMTQSPSSLSASVGDRVTITCRASQSVSSAVAWYQQKPGKAPKLLIYSASSLYSGVPSRFSGSRSGTDFTLTISSLQPEDFATYYCQQSSYSLITFGQGTKVEIKRTVAAPSVFIFPPSDSQLKSGTASVVCLLNNFYPREAKVQWKVDNALQSGNSQESVTEQDSKDSTYSLSSTLTLSKADYEKHKVYACEVTHQGLSSPVTKSFNRGECGGS
heavy: EVQLVESGGGLVQPGGSLRLSCAASGFNISSYYIHWVRQAPGKGLEWVASISSSYGYTYYADSVKGRFTISADTSKNTAYLQMNSLRAEDTAVYYCARPWSHYSSGAYWHPWSGHALDYWGQGTLVTVSSASTKGPSVFPLAPSSKSTSGGTAALGCLVKDYFPEPVTVSWNSGALTSGVHTFPAVLQSSGLYSLSSVVTVPSSSLGTQTYICNVNHKPSNTKVDKKVEPKSC
notes: selection round 2; also called Fzd7-R2-B8
As for B3, the “OD 450” value was 0.24 in [1], 0.05 in experiment [2], 1.16 in experiment [3] and 0.05 in [4]. The “% population within the positive gate” value in experiment [5] was 2.8%; in experiment [6], 80.9%.

B4: B12 (Fab, V domains shown)
VH: EVQLVESGGGLVQPGGSLRLSCAASGFNLSYSYMHWVRQAPGKGLEWVASISSSYGYTYYADSVKGRFTISADTSKNTAYLQMNSLRAEDTAVYYCARAAGPYWYSYWYSAMDYWGQGTLVTVSS
VL: DIQMTQSPSSLSASVGDRVTITCRASQSVSSAVAWYQQKPGKAPKLLIYSASSLYSGVPSRFSGSRSGTDFTLTISSLQPEDFATYYCQQSSYSLITFGQGTKVEIKR
notes: selection round 2; also called Fzd7-R2-B12
In the case of B4, the “OD 450” value in experiment [7] was 0.05; in experiment [8], 0.06. Also, the figures for the “% population within the positive gate” value in experiment [9] and in [10] were 0.9% and 74.6%, respectively.

B5: D5 (Fab)
light: DIQMTQSPSSLSASVGDRVTITCRASQSVSSAVAWYQQKPGKAPKLLIYSASSLYSGVPSRFSGSRSGTDFTLTISSLQPEDFATYYCQQAYYLITFGQGTKVEIKRTVAAPSVFIFPPSDSQLKSGTASVVCLLNNFYPREAKVQWKVDNALQSGNSQESVTEQDSKDSTYSLSSTLTLSKADYEKHKVYACEVTHQGLSSPVTKSFNRGECGGS
heavy: EVQLVESGGGLVQPGGSLRLSCAASGFNIYYSSIHWVRQAPGKGLEWVASIYPSSGYTYYADSVKGRFTISADTSKNTAYLQMNSLRAEDTAVYYCARWAPHSSSWWSVYGWSAWAFDYWGQGTLVTVSSASTKGPSVFPLAPSSKSTSGGTAALGCLVKDYFPEPVTVSWNSGALTSGVHTFPAVLQSSGLYSLSSVVTVPSSSLGTQTYICNVNHKPSNTKVDKKVEPKSC
notes: selection round 2; also called Fzd7-R2-D5
Take B5: the “OD 450” value in [1] worked out at 2.65; in [2], 0.06; in experiment [3], 3.21; in experiment [4], 0.17. Further, the “% population within the positive gate” value was determined as 3.9% in experiment [5] and 88.1% in [6].

B6: H11 (Fab)
light: DIQMTQSPSSLSASVGDRVTITCRASQSVSSAVAWYQQKPGKAPKLLIYSASSLYSGVPSRFSGSRSGTDFTLTISSLQPEDFATYYCQQYSGPITFGQGTKVEIKRTVAAPSVFIFPPSDSQLKSGTASVVCLLNNFYPREAKVQWKVDNALQSGNSQESVTEQDSKDSTYSLSSTLTLSKADYEKHKVYACEVTHQGLSSPVTKSFNRGECGGS
heavy: EVQLVESGGGLVQPGGSLRLSCAASGFNISSSYIHWVRQAPGKGLEWVAYIYPYYSYTYYADSVKGRFTISADTSKNTAYLQMNSLRAEDTAVYYCARSVTYHSSGWVPPWYWGYAFDYWGQGTLVTVSSASTKGPSVFPLAPSSKSTSGGTAALGCLVKDYFPEPVTVSWNSGALTSGVHTFPAVLQSSGLYSLSSVVTVPSSSLGTQTYICNVNHKPSNTKVDKKVEPKSC
notes: selection round 2; also called Fzd7-R2-H11
With B6, the “OD 450” value worked out at 3.18 in experiment [1], 0.05 in [2], 3.23 in [3] and 0.06 in [4].

B7: C8 (Fab)
light: DIQMTQSPSSLSASVGDRVTITCRASQSVSSAVAWYQQKPGKAPKLLIYSASSLYSGVPSRFSGSRSGTDFTLTISSLQPEDFATYYCQQYSPSSFLITFGQGTKVEIKRTVAAPSVFIFPPSDSQLKSGTASVVCLLNNFYPREAKVQWKVDNALQSGNSQESVTEQDSKDSTYSLSSTLTLSKADYEKHKVYACEVTHQGLSSPVTKSFNRGECGGS
heavy: EVQLVESGGGLVQPGGSLRLSCAASGFNIYYSYIHWVRQAPGKGLEWVASISSSSGYTSYADSVKGRFTISADTSKNTAYLQMNSLRAEDTAVYYCARSYGYYYYFYYYGGMDYWGQGTLVTVSSASTKGPSVFPLAPSSKSTSGGTAALGCLVKDYFPEPVTVSWNSGALTSGVHTFPAVLQSSGLYSLSSVVTVPSSSLGTQTYICNVNHKPSNTKVDKKVEPKSC
notes: selection round 2; also called Fzd7-R2-C8
For B7, the “OD 450” value worked out at 0.55 in experiment [1], 0.05 in [2], 1.36 in [3] and 0.09 in [4]. Moreover, the “% population within the positive gate” value in experiment [5] is 2.7%; in experiment [6] it was 83.5%.

B8: D2 (Fab)
light: DIQMTQSPSSLSASVGDRVTITCRASQSVSSAVAWYQQKPGKAPKLLIYSASSLYSGVPSRFSGSRSGTDFTLTISSLQPEDFATYYCQQSYSGWGPFTFGQGTKVEIKRTVAAPSVFIFPPSDSQLKSGTASVVCLLNNFYPREAKVQWKVDNALQSGNSQESVTEQDSKDSTYSLSSTLTLSKADYEKHKVYACEVTHQGLSSPVTKSFNRGECGGS
heavy: EVQLVESGGGLVQPGGSLRLSCAASGFNISSSYIHWVRQAPGKGLEWVASISSSSSYTYYADSVKGRFTISADTSKNTAYLQMNSLRAEDTAVYYCARSAYPFSWSYPSYVGYYSGLDYWGQGTLVTVSSASTKGPSVFPLAPSSKSTSGGTAALGCLVKDYFPEPVTVSWNSGALTSGVHTFPAVLQSSGLYSLSSVVTVPSSSLGTQTYICNVNHKPSNTKVDKKVEPKSC
notes: selection round 2; also called Fzd7-R2-D2
B8: the “OD 450” value came to 0.5 in [1], 0.06 in experiment [2], 1.6 in experiment [3] and 0.05 in experiment [4]. The “% population within the positive gate” value in [5] was 0.8%; in [6], 75.2%.
